Patent US6946588B2, “Nucleic acid encoding a modified threonine deaminase and methods of use” (Monsanto Technology LLC, priority 1996, dated 2005)
Like-named read-outs stand apart in the source and are kept apart here.

Assays:
E. coli DH5α cells = test: Intracellular α-ketobutyrate in transformed E. coli DH5α (HPLC of dinitrophenylhydrazine derivative); type: cell-based; conditions: for [α-ketobutyrate]: 1 ml extract from approximately 50 mg cells, M9 + 0.2% gluconate + 25 mM L-threonine; for α-ketobutyrate level relative to cells containing no overexpressed threonine deaminase: transformed E. coli DH5α
Protocol: (§1) Transformed cells were grown on M9 minimal salts plus 0.2% gluconate and 25 mM L-threonine. At early log phase, the cells were induced with IPTG to induce expression of all four enzymes (i.e., PhbA, PhbB, PhbC, and IlvA or IlvA466). […] The level of α-ketobutyrate was determined by reverse-phase HPLC isolation of the dinitrophenylhydrazine derivative of the α-ketoacid according to Qureshi et al., (1982). Quantitation was based on peak integration comparisons to a standard curve.

[1] = test system: E. coli biosynthetic threonine deaminase; conditions: for Threonine Deaminase Specific Activity / % activity relative to the results with 0 mM isoleucine: 10 mM threonine; for Hill Coefficient (n) / Km: fit to Hill equation; for Km: read-out: Km Threonine
Protocol: Kinetic analysis of the wild-type and mutant threonine deaminases was performed by determining threonine turnover catalyzed by these threonine deaminases as assayed by the method of Burns (1971). Specifically, α-keto-butyrate production was monitored by coupling to L-lactic dehydrogenase (LDH)-catalyzed reduction of the α-ketoacid in the presence of NADH to form (L)-2-hydroxybutyrate and NAD+. The disappearance of NADH absorbance at 340 nm provides a measure of the threonine deaminase activity. Final reaction conditions were 100 mM KPi, pH 7.8, 0.20 mM NADH, 10 units/mL LDH (defined as LDH turnover of α-ketobutyrate, not pyruvate), and variable threonine. R. Rubrum was grown according to Brandl et al., 1989. The growth and induction of E. coli cells overexpressing the mutant and wild-type biosynthetic threonine deaminases is described above. Cell extracts of R. Rubrum and E. coli were prepared by sonicating pelleted cells (≈0.5 g from 100 ml of culture) in 2 ml of 100 mM KPi, pH 7.0, containing 5% (v/v) glycerol. After centrifugation to remove cellular debris, protein concentrations were determined by the method of Bradford (1976), and threonine deaminase activity was measured.
The kinetic parameters Km and Vmax, and the level of positive cooperativity, i.e., the deviation from normal saturation kinetics where at low substrate concentration the substrate turnover rate is less than a non-cooperative system, were determined. These values were found by fitting the rate data to the Hill equation (Equation 1), which incorporates the coefficient n into the normal Michaelis-Menten equation (n=1 for a non-cooperative system).
In addition to the kinetic parameters, the degree of inhibition of threonine deaminase by isoleucine was also measured at fixed levels of threonine.

threonine deaminase = test: Threonine deaminase activity in extracts of transformed E. coli DH5α (in vivo analysis of cloned ilvA genes); type: biochemical; conditions: 0 mM isoleucine, 10 mM threonine
Description: E. coli DH5α cells were transformed with pJM9238 (Kidwell et al., 1995) containing the PHB operon of A. eutrophus by CaCl2/heat shock treatment The PHB operon was under the inducible control of the ptac promoter. E. coli containing pJM9236 were used as a background control with respect to threonine deaminase activity.
E. coli DH5α cells were also cotransformed by CaCl2/heat shock treatment with pJM9238 and pMON25660 (FIG. 5) containing the wild-type E. coli threonine deaminase, under ptrc inducible control.
In a third experiment, E. coli DH5α cells were cotransformed with pJM9238 and pMON25683 (FIG. 11) containing the mutant E. coli ilvA466 (L481F) threonine deaminase, under ptrc inducible control.
as §1

soybean callus = test: Expression and activity of E. coli IlvA in stably transformed soybean callus; type: cell-based; conditions: soybean calli 518-4, 518-15, 518-16, 518-17 transformed with pMON25668
Description: As shown above, the E. coli IlvA proteins can be functionally expressed in a plant transient expression system. In order to test the expression of a biosynthetic threonine deaminase in a stably transformed plant tissue, non-differentiating callus derived from soybean hypocotyl tissue was transformed with a plasmid containing the E. coli wild-type ilvA threonine deaminase gene using Agrobacterium tumefaciens ABI (Koncz and Schell, 1986).
Soybean callus tissue was transformed with binary Ti plasmid pMON25668 (FIG. 17). Plasmid pMON25668 contains the e35S-expressed, plastid-targeted (ARABSSU1A) E. coli wild-type ilvA threonine deaminase gene, the e35S-expressed, plastid-targeted (ARABSSU1A) A. eutrophus phbA (β-ketothiolase) gene, and the e35s-expressed neomycin phosphotransferase type II (NptII) gene for kanamycin resistance. […] contains two border sequences for T-DNA transfer into the plant chromosome. The right border sequence is the only border required for T-DNA transfer into the plant; however, including the left border sequence terminates T-DNA integration at that point, thereby limiting the unnecessary incorporation of “extra” DNA sequences into the plant chromosome. pMON25668 also contains the minimun sequence of ori-322 for replication and maintenance in E. coli as well as ori-V of the broad host origin RK2 for replication in Agrobacterium. […]

[2] = substrate: CC(C)(COP(=O)(O)OP(=O)(O)OC[C@H]1O[C@@H](n2cnc3c(N)ncnc32)[C@H](O)[C@@H]1OP(=O)(O)O)[C@@H](O)C(=O)NCCC(=O)NCCS; test: purified protein, by the assay type; conditions: other: thiolysis, 25° C., β-ketocaproyl-CoA fixed at 60 μM
Protocol: To enhance further our understanding of the kinetic characteristics of BktB β-ketothiolase, a thorough kinetic analysis of the enzyme's thiolysis activity was conducted using purified protein. The assay to determine the kinetic parameters Km and Vmax for βketobutyryl-CoA (C4), β-ketovaleryl-CoA (C5), and β-ketocaproyl-CoA (C6), was performed at 25° C. by the in situ generation of the β-keto compounds from their corresponding trans-2,3-enoyl-CoAs essentially as described by Haywood et al. (1988). Utilization of variable substrate concentrations permitted the determination of the descriptive kinetic parameters of the β-ketothiolase.
The assay mixture (1 ml final volume) contained 150 mM EPPS, pH 8.0, 50 mM MgCl2, 1.5 mM pyruvate, 0.4 mM NAD+, and a coupling enzyme cocktail of three units crotonase, five units β-hydroxyacyl-CoA dehydrogenase, and 10 units lactic dehydrogenase. The enoyl-CoA was added to this mixture and the absorbance at 304 nm was monitored until it reached a plateau (typically about 5 min). CoA was added to this mixture, followed by BktB β-ketothiolase to initiate the reaction. The decrease in absorbance at 304 nm due to the thiolysis of the β-ketoacyl-CoA was utilized as a direct measure of activity. […] Reaction rates were calculated in the steady-state within the first minute following initiation. […]

Molecule | [α-ketobutyrate] (E. coli DH5α cells) | α-ketobutyrate level relative to cells containing no overexpressed threonine deaminase (E. coli DH5α cells) | Threonine Deaminase Specific Activity ([1]; 0 mM isoleucine) | % activity relative to the results with 0 mM isoleucine ([1]; 1.0 mM isoleucine) | Threonine Deaminase Specific Activity ([1]; 1.0 mM isoleucine) | % activity relative to the results with 0 mM isoleucine ([1]; 10.0 mM isoleucine) | Threonine Deaminase Specific Activity ([1]; 10.0 mM isoleucine) | Hill Coefficient (n) [1] | Km [1] | Threonine Deaminase Specific Activity (threonine deaminase) | expression (Western blot) and enzymatic activity in transformed calli (soybean callus) | Km [2]
E. coli wild-type: wild-type E. coli biosynthetic threonine deaminase encoded by the ilvA gene (SEQ ID NO:1) (protein, listed as Escherichia coli) MADSQPLSGAPEGAEYLRAVLRAPVYEAAQVTPLQKMEKLSSRLDNVILVKREDRQPVHSFKLRGAYAMMAGLTEEQKAHGVITASAGNHAQGVAFSSARLGVKALIVMPTATADIKVDRLRGFGGEVLLHGANFDEAKRKAIELSQQQGFTWVPPFDHPMVIAGQGTLALELLQQDAHLDRVFVPVGGGGLAACVAVLIKQLMPQIKVIAVEAEDSACLKAALDAGHPVDLPRVGLFAEGVAVKRIGDETFRLCQEYLDDIITVDSDAICAAMKDLFEDVRAVAEPSGALALAGMKKYIALHNIRGERLAHILSGANVNFHGLRYVSERCELVEQREALLAVTIPEEKGSFLKFCQLLGGRSVTEFNYRFADAKNACIFVGVRLSRGLEERKEILQMLNDGGYSVVDLSDDEMAKLHVRYMVGGRPSHPLQERLYSFEFPESPGALLRFLNTLGTYWNISLFHYRSHGTDYGRVLAAFELGDHEPDFETRLNELGYDCHDETNNPAFRFFLAG | 41.8 µM | about a three-fold increase | 16.7 u/mg | < 2% | 0.3 u/mg | < 2% | 0.3 u/mg | 1.5 ± 0.2 | 5 ± 1 mM | 4.20 u/mg | can be expressed and maintain enzymatic activity | –
E. coli L481F (protein) MADSQPLSGAPEGAEYLRAVLRAPVYEAAQVTPLQKMEKLSSRLDNVILVKREDRQPVHSFKLRGAYAMMAGLTEEQKAHGVITASAGNHAQGVAFSSARLGVKALIVMPTATADIKVDAVRGFGGEVLLHGANFDEAKAKAIELSQQQGFTWVPPFDHPMVIAGQGTLALELLQQDAHLDRVFVPVGGGGLAAGVAVLIKQLMPQIKVIAVEAEDSACLKAALDAGHPVDLPRVGLFAEGVAVKRIGDETFRLCQEYLDDIITVDSDAICAAMKDLFEDVRAVAEPSGALALAGMKKYIALHNIRGERLAHILSGANVNFHGLRYVSERCELGEQREALLAVTIPEEKGSFLKFCQLLGGRSVTEFNYRFADAKNACIFVGVRLSRGLEERKEILQMLNDGGYSVVDLSDDEMAKLHVRYMVGGRPSHPLQERLYSFEFPESPGALLRFLNTLGTYWNISLFHYRSHGTDYGRVLAAFEFGDHEPDFETRLNELGYDCHDETNNPAFRFFLAG | 579 µM | greater than 40 times | 20.3 u/mg | 56% | 11.3 u/mg | < 2% | 0.3 u/mg | 1.22 ± 0.01 | 3.08 ± 0.03 mM | 0.59 u/mg | – | –
BktB β-ketothiolase (Cupriavidus necator H16) (protein) TREVVVVSGVRTAIGTFGGSLKDVAPAELGALVVREALARAQVSGDDVGHVVFGNVIQTEPRDMYLGRVAAVNGGVTINAPALTVNRLCGSGLQAIVSAAQTILLGDTDVAIGGGAESMSRAPYLAPAARWGARMGDAGLVDMMLGALHDPFHRIHMGVTAENVAKEYDISRAQQDEAALESHRRASAAIKAGYFKDQIVPVVSKGRKGDVTFDTDEHVRHDATIDDMTKLRPVFVKENGTVTAGNASGLNDAAAAVVMMERAEAERRGLKPLARLVSYGHAGVDPKAMGIGPVPATKIALERAGLQVSDLDVIEANEAFAAQACAVTKALGLDPAKVNPNGSGISLGHPIGATGALITVKALHELNRVQGRYALVTMCIGGGQGIAAIFERI | – | – | – | – | – | – | – | – | – | – | – | 0.053 ± 0.006 mM
